Reference: US20190233493A1 (Sanofi, published 2019)
One block for each binder: values may come before it. *1 amine or outer side, *2 acyl side, *3 side chain or, on linkers, in order; H or OH if unused. Side-chain parts run from the residue outwards. [ ]: non-standard residue; d: D form. The star is where a group is joined. PEG12 = NCCOCCOCCOCCOCCOCCOCCOCCOCCOCCOCCOCCOCCC(=O)O; γGlu = O=C(O)[C@H](CCC(=O)[*:2])N[*:1]; 1Nal = N[C@@H](Cc1cccc2ccccc12)C(=O)O; Stearoyl = CCCCCCCCCCCCCCCCCC(=O)*; Palmitoyl = CCCCCCCCCCCCCCCC(=O)*; Nle = CCCC[C@H](N)C(=O)O; Aib = CC(C)(N)C(=O)O

Target: T1, RXFP1 receptor (UniProt Q9HBX9 1-757, limits assumed)
T1 sequence (looked up): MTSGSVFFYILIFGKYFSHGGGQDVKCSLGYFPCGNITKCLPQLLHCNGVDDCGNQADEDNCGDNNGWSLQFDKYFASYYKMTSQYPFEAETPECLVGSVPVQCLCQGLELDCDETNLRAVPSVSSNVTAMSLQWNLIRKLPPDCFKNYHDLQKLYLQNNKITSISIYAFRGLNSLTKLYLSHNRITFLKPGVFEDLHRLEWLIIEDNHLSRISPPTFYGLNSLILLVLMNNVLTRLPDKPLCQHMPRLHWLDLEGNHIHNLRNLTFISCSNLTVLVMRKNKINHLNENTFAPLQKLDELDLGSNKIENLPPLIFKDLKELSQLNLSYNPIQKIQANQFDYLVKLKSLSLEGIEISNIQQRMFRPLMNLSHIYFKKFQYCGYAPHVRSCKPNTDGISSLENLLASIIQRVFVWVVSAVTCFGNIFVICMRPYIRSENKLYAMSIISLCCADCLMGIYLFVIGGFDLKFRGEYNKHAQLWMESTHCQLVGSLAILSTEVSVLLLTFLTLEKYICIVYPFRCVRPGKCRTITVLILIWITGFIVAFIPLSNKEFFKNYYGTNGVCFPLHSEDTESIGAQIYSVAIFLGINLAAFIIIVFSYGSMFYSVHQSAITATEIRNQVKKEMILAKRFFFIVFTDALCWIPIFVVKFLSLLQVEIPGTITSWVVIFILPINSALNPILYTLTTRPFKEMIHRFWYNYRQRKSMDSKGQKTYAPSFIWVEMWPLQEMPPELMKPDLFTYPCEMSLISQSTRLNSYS
Experiment: cell-based or functional assay

B2: peptide of SEQ ID NO: 29 (peptide)
peptide: Ac-LEGREKVRAK(Ac)I[Aib][Aib]EG[Nle]ST[1Nal]S[Aib]RK[PEG12]K([γGlu-γGlu-γGlu-Palmitoyl])-NH2
SMILES: CCCCCCCCCCCCCCCC(=O)N[C@@H](CCC(=O)N[C@@H](CCC(=O)N[C@@H](CCC(=O)NCCCC[C@H](NC(=O)CCOCCOCCOCCOCCOCCOCCOCCOCCOCCOCCOCCOCCNC(=O)[C@H](CCCCN)NC(=O)[C@H](CCCNC(=N)N)NC(=O)C(C)(C)NC(=O)[C@H](CO)NC(=O)[C@H](Cc1cccc2ccccc12)NC(=O)[C@@H](NC(=O)[C@H](CO)NC(=O)[C@H](CCCC)NC(=O)CNC(=O)[C@H](CCC(=O)O)NC(=O)C(C)(C)NC(=O)C(C)(C)NC(=O)[C@@H](NC(=O)[C@H](CCCCNC(C)=O)NC(=O)[C@H](C)NC(=O)[C@H](CCCNC(=N)N)NC(=O)[C@@H](NC(=O)[C@H](CCCCN)NC(=O)[C@H](CCC(=O)O)NC(=O)[C@H](CCCNC(=N)N)NC(=O)CNC(=O)[C@H](CCC(=O)O)NC(=O)[C@H](CC(C)C)NC(C)=O)C(C)C)[C@@H](C)CC)[C@@H](C)O)C(N)=O)C(=O)O)C(=O)O)C(=O)O
EC50 (nM), OVCAR 5 cells (cAMP): 2.5 nM | EMax, OVCAR 5 cells (cAMP): 78%

B4: peptide of SEQ ID NO: 34 (peptide)
peptide: Ac-LEGREKVRAK(Ac)I[Aib][Aib]EG[Nle]STWS[Aib]RK[PEG12]K([γGlu-γGlu-γGlu-Stearoyl])-NH2
EC50 (nM), OVCAR 5 cells (cAMP): 4.73 nM | EMax, OVCAR 5 cells (cAMP): 95%

B6: peptide of SEQ ID NO: 28 (peptide)
peptide: Ac-LEGREKVR[Aib]QI[Aib][Aib]EG[Nle]STWS[Aib]RKK(Ac)[PEG12]K([γGlu-γGlu-γGlu-Palmitoyl])-NH2
SMILES: CCCCCCCCCCCCCCCC(=O)N[C@@H](CCC(=O)N[C@@H](CCC(=O)N[C@@H](CCC(=O)NCCCC[C@H](NC(=O)CCOCCOCCOCCOCCOCCOCCOCCOCCOCCOCCOCCOCCNC(=O)[C@H](CCCCNC(C)=O)NC(=O)[C@H](CCCCN)NC(=O)[C@H](CCCNC(=N)N)NC(=O)C(C)(C)NC(=O)[C@H](CO)NC(=O)[C@H](Cc1c[nH]c2ccccc12)NC(=O)[C@@H](NC(=O)[C@H](CO)NC(=O)[C@H](CCCC)NC(=O)CNC(=O)[C@H](CCC(=O)O)NC(=O)C(C)(C)NC(=O)C(C)(C)NC(=O)[C@@H](NC(=O)[C@H](CCC(N)=O)NC(=O)C(C)(C)NC(=O)[C@H](CCCNC(=N)N)NC(=O)[C@@H](NC(=O)[C@H](CCCCN)NC(=O)[C@H](CCC(=O)O)NC(=O)[C@H](CCCNC(=N)N)NC(=O)CNC(=O)[C@H](CCC(=O)O)NC(=O)[C@H](CC(C)C)NC(C)=O)C(C)C)[C@@H](C)CC)[C@@H](C)O)C(N)=O)C(=O)O)C(=O)O)C(=O)O
EC50 (nM), OVCAR 5 cells (cAMP): 4.64 nM | EMax, OVCAR 5 cells (cAMP): 78%

B7: peptide of SEQ ID NO: 30 (peptide)
peptide: Ac-LEGREKVRAQI[Aib][Aib]EG[Nle]STWS[Aib]RK[PEG12]K([γGlu-γGlu-γGlu-Stearoyl])-NH2
SMILES: CCCCCCCCCCCCCCCCCC(=O)N[C@@H](CCC(=O)N[C@@H](CCC(=O)N[C@@H](CCC(=O)NCCCC[C@H](NC(=O)CCOCCOCCOCCOCCOCCOCCOCCOCCOCCOCCOCCOCCNC(=O)[C@H](CCCCN)NC(=O)[C@H](CCCNC(=N)N)NC(=O)C(C)(C)NC(=O)[C@H](CO)NC(=O)[C@H](Cc1c[nH]c2ccccc12)NC(=O)[C@@H](NC(=O)[C@H](CO)NC(=O)[C@H](CCCC)NC(=O)CNC(=O)[C@H](CCC(=O)O)NC(=O)C(C)(C)NC(=O)C(C)(C)NC(=O)[C@@H](NC(=O)[C@H](CCC(N)=O)NC(=O)[C@H](C)NC(=O)[C@H](CCCNC(=N)N)NC(=O)[C@@H](NC(=O)[C@H](CCCCN)NC(=O)[C@H](CCC(=O)O)NC(=O)[C@H](CCCNC(=N)N)NC(=O)CNC(=O)[C@H](CCC(=O)O)NC(=O)[C@H](CC(C)C)NC(C)=O)C(C)C)[C@@H](C)CC)[C@@H](C)O)C(N)=O)C(=O)O)C(=O)O)C(=O)O
EC50 (nM), OVCAR 5 cells (cAMP): 0.92 nM | EMax, OVCAR 5 cells (cAMP): 89%

B8: peptide of SEQ ID NO: 35 (peptide)
peptide: Ac-LEGREKVRAK(Ac)I[Aib][Aib]EGMSTWS[Aib]RK[PEG12]K([γGlu-γGlu-γGlu-Stearoyl])-NH2
SMILES: CCCCCCCCCCCCCCCCCC(=O)N[C@@H](CCC(=O)N[C@@H](CCC(=O)N[C@@H](CCC(=O)NCCCC[C@H](NC(=O)CCOCCOCCOCCOCCOCCOCCOCCOCCOCCOCCOCCOCCNC(=O)[C@H](CCCCN)NC(=O)[C@H](CCCNC(=N)N)NC(=O)C(C)(C)NC(=O)[C@H](CO)NC(=O)[C@H](Cc1c[nH]c2ccccc12)NC(=O)[C@@H](NC(=O)[C@H](CO)NC(=O)[C@H](CCSC)NC(=O)CNC(=O)[C@H](CCC(=O)O)NC(=O)C(C)(C)NC(=O)C(C)(C)NC(=O)[C@@H](NC(=O)[C@H](CCCCNC(C)=O)NC(=O)[C@H](C)NC(=O)[C@H](CCCNC(=N)N)NC(=O)[C@@H](NC(=O)[C@H](CCCCN)NC(=O)[C@H](CCC(=O)O)NC(=O)[C@H](CCCNC(=N)N)NC(=O)CNC(=O)[C@H](CCC(=O)O)NC(=O)[C@H](CC(C)C)NC(C)=O)C(C)C)[C@@H](C)CC)[C@@H](C)O)C(N)=O)C(=O)O)C(=O)O)C(=O)O
EC50 (nM), OVCAR 5 cells (cAMP): 1.69 nM | EMax, OVCAR 5 cells (cAMP): 95%

Continued, values first:

EC50 (nM), OVCAR 5 cells (cAMP): 1.04 nM | EMax, OVCAR 5 cells (cAMP): 96%
B1: peptide of SEQ ID NO: 32 (peptide)
peptide: Ac-LEGREKVRAK(Ac)I[Aib][Aib]EG[Nle]STWS[Aib]RKK[PEG12]K([γGlu-γGlu-γGlu-Stearoyl])-NH2
SMILES: CCCCCCCCCCCCCCCCCC(=O)N[C@@H](CCC(=O)N[C@@H](CCC(=O)N[C@@H](CCC(=O)NCCCC[C@H](NC(=O)CCOCCOCCOCCOCCOCCOCCOCCOCCOCCOCCOCCOCCNC(=O)[C@H](CCCCN)NC(=O)[C@H](CCCCN)NC(=O)[C@H](CCCNC(=N)N)NC(=O)C(C)(C)NC(=O)[C@H](CO)NC(=O)[C@H](Cc1c[nH]c2ccccc12)NC(=O)[C@@H](NC(=O)[C@H](CO)NC(=O)[C@H](CCCC)NC(=O)CNC(=O)[C@H](CCC(=O)O)NC(=O)C(C)(C)NC(=O)C(C)(C)NC(=O)[C@@H](NC(=O)[C@H](CCCCNC(C)=O)NC(=O)[C@H](C)NC(=O)[C@H](CCCNC(=N)N)NC(=O)[C@@H](NC(=O)[C@H](CCCCN)NC(=O)[C@H](CCC(=O)O)NC(=O)[C@H](CCCNC(=N)N)NC(=O)CNC(=O)[C@H](CCC(=O)O)NC(=O)[C@H](CC(C)C)NC(C)=O)C(C)C)[C@@H](C)CC)[C@@H](C)O)C(N)=O)C(=O)O)C(=O)O)C(=O)O

EC50 (nM), OVCAR 5 cells (cAMP): 0.61 nM | EMax, OVCAR 5 cells (cAMP): 100%
B3: peptide of SEQ ID NO: 33 (peptide)
peptide: Ac-LEGREKVRAK(Ac)I[Aib][Aib]EG[Nle]STWS[Aib]RKK(Ac)[PEG12]K([γGlu-γGlu-γGlu-Stearoyl])-NH2
SMILES: CCCCCCCCCCCCCCCCCC(=O)N[C@@H](CCC(=O)N[C@@H](CCC(=O)N[C@@H](CCC(=O)NCCCC[C@H](NC(=O)CCOCCOCCOCCOCCOCCOCCOCCOCCOCCOCCOCCOCCNC(=O)[C@H](CCCCNC(C)=O)NC(=O)[C@H](CCCCN)NC(=O)[C@H](CCCNC(=N)N)NC(=O)C(C)(C)NC(=O)[C@H](CO)NC(=O)[C@H](Cc1c[nH]c2ccccc12)NC(=O)[C@@H](NC(=O)[C@H](CO)NC(=O)[C@H](CCCC)NC(=O)CNC(=O)[C@H](CCC(=O)O)NC(=O)C(C)(C)NC(=O)C(C)(C)NC(=O)[C@@H](NC(=O)[C@H](CCCCNC(C)=O)NC(=O)[C@H](C)NC(=O)[C@H](CCCNC(=N)N)NC(=O)[C@@H](NC(=O)[C@H](CCCCN)NC(=O)[C@H](CCC(=O)O)NC(=O)[C@H](CCCNC(=N)N)NC(=O)CNC(=O)[C@H](CCC(=O)O)NC(=O)[C@H](CC(C)C)NC(C)=O)C(C)C)[C@@H](C)CC)[C@@H](C)O)C(N)=O)C(=O)O)C(=O)O)C(=O)O

EC50 (nM), OVCAR 5 cells (cAMP): 0.71 nM | EMax, OVCAR 5 cells (cAMP): 86%
B5: peptide of SEQ ID NO: 31 (peptide)
peptide: Ac-LEGREKVRAQI[Aib][Aib]EG[Nle]STWS[Aib]RKK[PEG12]K([γGlu-γGlu-γGlu-Stearoyl])-NH2
SMILES: CCCCCCCCCCCCCCCCCC(=O)N[C@@H](CCC(=O)N[C@@H](CCC(=O)N[C@@H](CCC(=O)NCCCC[C@H](NC(=O)CCOCCOCCOCCOCCOCCOCCOCCOCCOCCOCCOCCOCCNC(=O)[C@H](CCCCN)NC(=O)[C@H](CCCCN)NC(=O)[C@H](CCCNC(=N)N)NC(=O)C(C)(C)NC(=O)[C@H](CO)NC(=O)[C@H](Cc1c[nH]c2ccccc12)NC(=O)[C@@H](NC(=O)[C@H](CO)NC(=O)[C@H](CCCC)NC(=O)CNC(=O)[C@H](CCC(=O)O)NC(=O)C(C)(C)NC(=O)C(C)(C)NC(=O)[C@@H](NC(=O)[C@H](CCC(N)=O)NC(=O)[C@H](C)NC(=O)[C@H](CCCNC(=N)N)NC(=O)[C@@H](NC(=O)[C@H](CCCCN)NC(=O)[C@H](CCC(=O)O)NC(=O)[C@H](CCCNC(=N)N)NC(=O)CNC(=O)[C@H](CCC(=O)O)NC(=O)[C@H](CC(C)C)NC(C)=O)C(C)C)[C@@H](C)CC)[C@@H](C)O)C(N)=O)C(=O)O)C(=O)O)C(=O)O
